Test results: patent publication US20210163947

Test system: pdt-tagged sfGFP

mf-Lon
signal decay of pdt-tagged sfGFP (protein degradation) on mixing extracts: Increasing the concentration of mf-Lon and supplying additional ATP (a co-substrate for the reaction) results in some signal decay
